# pKd: −log10 of the molar value.
# Legend:
# Test in all cases: SPR
# [1] = molecular target: afucosylated A330W E269I KiH Rituximab IgG1 (human)
# [2] = molecular target: afucosylated agalactosylated KiH-A330W anti-DENV2 E protein IgG1 (C10) (human)
# [3] = molecular target: monofucosylated A330W E269M KiH Rituximab IgG1 (human)
# [4] = molecular target: bifucosylated A330W E269M KiH Rituximab IgG1 (human)
# [5] = molecular target: bifucosylated A330W E269I KiH Rituximab IgG1 (human)
# [6] = molecular target: monofucosylated A330W E269I KiH Rituximab IgG1 (human)
# [7] = molecular target: monoglycosylated monofucosylated IgG (human)
# [8] = molecular target: monoglycosylated bifucosylated IgG (human)
substance,measurement,setting,value
soluble human FcγRIIIA-F158 ectodomain (from UniProt P08637 17-208) (receptor),pKd,[1],6.80
same,pKd,[2],7.41
same,pKd,[3],6.92
same,pKd,[4],5.83
same,pKd,[5],5.68
same,pKd,[6],6.16
same,pKd,[7],6.26
same,pKd,[8],5.79

# — PMC12796453
